Reference: patent publication US20260055143A1 (published 2026)
Like-named read-outs stand apart in the source and are kept apart here. Where no end group is shown, it is not given here. [ ]: non-standard residue; d: D form. The star is where a group is joined. Biotin = O=C1N[C@H]2[C@H](CS[C@H]2CCCCC(=O)*)N1; pY = N[C@@H](Cc1ccc(OP(=O)(O)O)cc1)C(=O)O; Ahx = NCCCCCC(=O)O

T1: Phosphopeptide KQVE{pTyr}LDLDLD
T1 peptide: {Biotin-Ahx-Ahx}-KQVE[pY]LDLDLD

T2: pMT peptide EEPQ{pTyr}EEIPIY
T2 peptide: {Biotin-Ahx-Ahx}-EEPQ[pY]EEIPIY

T3: pTyr-containing peptide (pEZ) derived from Ezrin, PPV{pTyr}EPVS (also: N-terminal fluorescein (FP) or biotin via two aminocaproic acids (ELISA))
T3 peptide: PPV[pY]EPVS

T4: Phosphopeptide QGVI{pTyr}SDLNLP
T4 peptide: {Biotin-Ahx-Ahx}-QGVI[pY]SDLNLP

T5: Phosphopeptide PPPT{pTyr}TEVDP
T5 peptide: {Biotin-Ahx-Ahx}-PPPT[pY]TEVDP


Legend:
[1] = biological target: T1, Phosphopeptide KQVE{pTyr}LDLDLD; assay: competition binding
[2] = biological target: T2, pMT peptide EEPQ{pTyr}EEIPIY; assay: competition binding
[3] = biological target: T2, pMT peptide EEPQ{pTyr}EEIPIY; assay: competition binding
[4] = biological target: T3, pTyr-containing peptide (pEZ) derived …; assay: competition binding
[5] = biological target: T3, pTyr-containing peptide (pEZ) derived …; assay: competition binding
[6] = biological target: T4, Phosphopeptide QGVI{pTyr}SDLNLP; assay: competition binding
[7] = biological target: T5, Phosphopeptide PPPT{pTyr}TEVDP; assay: competition

Row | Binder | IC50 [4] [nM] | IC50 [5] [nM] | further results
1 | Ptn11_N^G-αA2-R sSrc (protein) MKIEEHHHHHHSSGKLGLNDIFEAQKIEWHESSGEDLYFQSGTTMDDYKDDDDKGGSGSMTSRRWFHPNITRVEAENLLLTRGVDGSFLARPSETVKGAFALSVRRNGAVTHILIQNTGDYYDLYGGEKFATLAELVQYYMEHHGQLKEKNGDVIELKYPLNCADSR |  |  | IC50 [1]: 17 nM
2 | Src^sFes, Src SH2 domain with the sFes superbinder motif grafted (designed binder) MKIEEHHHHHHSSGKLGLNDIFEAQKIEWHESSGEDLYFQSGTTMDDYKDDDDKGGSDGIQAEEWYFGKITRRESERLLLNAENPRGTFLVREGQSQPDYVLSVSDFDNAKGLNVKHYIIRKLDSGGFYITSRTQFNSLQQLVAYYSKHADGLCHRLTTVCPSR |  |  | IC50 [2]: 4.3 nM; IC50 [3]: 21 nM
3 | sFes^1 (SuperFes), superbinder Fes SH2 domain variant (designed binder) MKIEEHHHHHHSSGKLGLNDIFEAQKIEWHESSGEDLYFQSGTTMDDYKDDDDKGGSEVQKPLHEQLWYHGAIPRAEVAELLVHSGDFLVREGQSQPDYVLSVLWDGLPRHFIIQSLDNLYRLEGEGFPSIPLLIDHLLSTQQPLTKKSGVVLHRAVPSR | 1.6 | 4 | 
4 | Fes SH2 domain, wild type (Fes^wt) (other) WYHGAIPRAEVAELLVHSGDFLVRESQGKQEYVLSVLWDGLPRHFIIQSLDNLYRLEGEGFPSIPLLIDHLLSTQQPLTKKSGVVLHRAV | 4600 | 6000 | 
5 | Ptn11_N^G-αA2-R sFes (protein) MKIEEHHHHHHSSGKLGLNDIFEAQKIEWHESSGEDLYFQSGTTMDDYKDDDDKGGSGSMTSRRWFHPNITRVEAENLLLTRGVDGSFLARPGQSQPDFVLSVRRNGAVTHIIIQNTGDYYDLYGGEKFATLAELVQYYMEHHGQLKEKNGDVIELKYPLNCADSR |  |  | IC50 [1]: 74 nM
6 | Ptn6_C^G-αA2-R sFes (protein) MKIEEHHHHHHSSGKLGLNDIFEAQKIEWHESSGEDLYFQSGTTMDDYKDDDDKGSLNCSDPTSERWYHGHMSRGQAETLLQAKGEPWTFLVREGQSQPDFVLSVLSDQPKAGPGSPLRVTHIIVMCEGGRYTVGGLETFDSLTDLVEHFKKTGIEEASGAFVYLRQPYYATRVNAADSR |  |  | IC50 [6]: 900 nM
7 | Fes^sSrc, Fes SH2 domain with the sSrc superbinder motif grafted (designed binder) MKIEEHHHHHHSSGKLGLNDIFEAQKIEWHESSGEDLYFQSGTTMDDYKDDDDKGGSEVQKPLHEQLWYHGAIPRAEVAELLVHSGDFLVRESETVKGAYALSVLWDGLPRHFLIQSLDNLYRLEGEGFPSIPLLIDHLLSTQQPLTKKSGVVLHRAVPSR | 42 | 70 | 
8 | Ptn11_C^G-αA2-R sSrc (protein) MKIEEHHHHHHSSGKLGLNDIFEAQKIEWHESSGEDLYFQSGTTMDDYKDDDDKGSLNCADPTSERWFHGHLSRKEAEKLLTEKGKHGSFLVRESETVKGAFALSVRTGDDKGESNDGKSKVTHVLIRCQELKYDVGGGERFDSLTDLVEHYKKNPMVETLGTVLQLKQPLNTTRINAADSR |  |  | IC50 [7]: 1900 nM
